Measurements as given in the nanobody polyreactivity screen of Harvey et al. (2022).

Assay: yeast display, Sf9 membrane polyspecificity reagent, FACS + sequencing; frameworks hold sequencing errors
Procedure, shortened: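 Nanobodies came from a synthetic yeast display library in Saccharomyces cerevisiae BJ5465, induced with galactose for 36–48 hours and stained for 1 hour at 4 °C with 10% biotinylated, detergent-solubilized Sf9 membrane reagent. Cells were enriched on streptavidin microbeads and then FACS-sorted, with low and high (top ~1%) gates set on anti-HA fluorescence for expression and streptavidin fluorescence for reagent binding. Each polyreactivity label reflects the gate a clone came from. Genes were amplified by colony PCR, sequenced by MiSeq 2 × 250 and filtered by CDR length.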

Sequence	polyreactivity (PSR sort gate)
QVQLVESGGGLVQAGGSLRLSCAASGSIFYYNYMGWYRQAPGKERELVATITNGGGTNYADSVKGRFTISRDNAKNTVYLQMNSLKPEDTAVYYCARDVWSPDYLYDYWGQGTQVTVSS	low polyreactivity
QVQLVESGGGLVQAGGSLRLSCAATGRIFYGYTMGWYRQPPGKERELVAAINFNAGRTYYADSVKGRFTISRDNAKNTVYLQMNSLKPEDTAVYYCAAEGRFGRKYGYWGQGTQVTVSS	low polyreactivity
QVQLVESGGGLVQAGGRHRLSCAPSGSIFRFYVMGWYIQAPGKERELVAAISIGGSTNYADSVKGRFTISRDNAKNTVYLQMNSLKPEDSAVYYCAADGPTYWWTTQWYWGDYWGQGTQVTVSS	low polyreactivity
QVQLVESGGGLVQAGGSLRLSCAASGRILYRYAMGWYRQAPGKERELVAAITWRGGTTYYADSVKGRFTISRDNAKNTVYLQMNSLKPEDTAVYYCNADWWRTLESDYWGQGTQVTVSS	low polyreactivity
HVHLVESGGGLVQAGGSLRLSCAASGRTFSRYAMGWYRQAPGKERELVAAITSGGSTNYADSVKGRFTISRDNAKNTVYLQKNSLKPEDTAVYYCAKRYFRSSRDGLGTTHPYDYWGQGTQVTVSS	high polyreactivity
QVQLVESGGGLVQAGGSLRLSCAASGRTFYIYAMGWYRQAPVKERELVAAITYGGGRTFYADSVKGRFTISRDNAKNTVYLKMNSLKPEDTAVYYCARGDFYYHSRYTYYTSDYWGQGTQVTVSS	high polyreactivity
QVQLVESGGGLVQAGGSLSLICAASGSIFAPNAMGLYRQAPGKERELDATITKRGGNTYYADSVKGRFTISRDNAINTVYLKMNSLKPEDSAVFYCNDSPYSRWSSYGYDYWGQGTQVTVSS	low polyreactivity
QVQLVESGGGLVQAGGSLRLSCAASGSTFRGYVMGWYRQAPGKERELVAAISSGGRTYYADSVKGRFTISRDNAKNTVYLQMNSLKPEDTAVYYCNSNGRDVYYNWAYDYWGQGTQVTVSS	high polyreactivity
QVQLVESGGGLVQAGGSLRLSCAASGSTFVSNAMGWYRQAPGKERELVAAISKGDGNTYYADSVKGRFTISRDNAKNTVYLQMNSLKPEDTAVYYCAATYHYYSRWYDYWGQGTQVTVSS	high polyreactivity
QVQLVESGGGLVQAGGSLRLSCAASGSTFYRYAMGWYRQAPGKERELVAAITWSGGSTYYADSVKGRFTISRDNAKNTVYLQMNSLKPEDTAVYYCNAVARYYYKDQTIIHSPREDYWGQGTQVTVSS	low polyreactivity
QVQLVESGGGLVQAGGSLRLICAASGIILYSYAMGWYRQAPGKERELVAAISRRGTSTFYADSVKGRFTISRDNAKNTVYLQMNSLKPEDTAVYYCAADFYTNHYDYWGQGTQVTVSS	high polyreactivity
QVQLVESGGGIVQAGGRLRKSCAASGRTFDSNAMGWYRQAPGKERELVAGISESGGSTYYADSVKGRFTISRDNAKNTVYLQMNSLKPEDTAVYYCDYSGITVYYHRAVDFIVSYDYWGQGTQVTVSS	low polyreactivity
QVQLVESGGGIVQAGGSLRLSCAASGITFGRYVMGWYRQAPGKERELVAAISRSGGSTYYADSVKGRFTISRDNAKNTVYLQMNSLKPEDTAVYYCAADLRQTGYGWYDYWGQGTQVTVSS	high polyreactivity
QVQLVESGGGLVKAGGSLRLSCAASGLIFRRNAMGWYRQAPGKERELVATINFRDTTRYADSVKGRFTISRDNAKNTVYFQMNSLKPEDTAVYYCATEWPERDWWVHKMDYWGQGTQVTVSS	low polyreactivity
QVQIEESGGGLVQAGGSLRLSCAASGLIFGSYVMGWYRQAPGKERELVAAITVRTGTTYYADSVKGRFTISRDNAKNTVYLKMNSLKPEDTAVYYCALRYRPKYGYWGQGTQVTVSS	high polyreactivity
QVQLVESGGGLVQAGGSLRVSCAASGSTFPPSAMGWYREAPGKERELGAAIDWSDGTTYYADSVKGRFTISRDYAKNTVYLQMNSLKPEDTAVYYCAADPVLDEYDYWGQGTQVTVSS	low polyreactivity
